Legend:
[1] = In-vivo stability by analytical radio-HPLC of blood samples; parameters: species or system CB17 SCID mice; settings: healthy mice, samples at 30, 60, 120, 180 min
Experimental: (§1) For pharmacokinetic studies, healthy control CB17 SCID mice (n = 12) were injected intravenously with 10.8 ± 1.6 MBq of [^68Ga]Ga-NODAGA-AMBA or [^44Sc]Sc-NODAGA-AMBA under isoflurane anesthesia. Thereafter, approximately 30 μL blood samples were collected from the saphenous vein into a capillary tube at the following time points: 30, 60, 120, and 180 minutes. The volume of the blood was determined using a digital caliper. Blood samples were placed in a γ-counter and the radioactivity of each sample was measured. Results were expressed as a percentage of the injected activity per mL (% ID/mL). For the determination of in vivo serum stability of [^68Ga]Ga-NODAGA-AMBA and [^44Sc]Sc-NODAGA-AMBA, blood samples were taken from the mice at the previously mentioned time points (30, 60, 120, and 180 min). Firstly, the blood samples were centrifuged at 4°C, 10,000 rpm for 5 min. Thereafter, 50 μL samples were taken from the supernatant and mixed with ice-cold abs. ethanol (50 μL) and centrifuged again at 4°C, 10 000 rpm for 5 min. The supernatants were analyzed by analytical radio-HPLC. In all cases, the radio-HPLC chromatograms were compared to the original chromatograms of the radiotracers to find any metabolite forms.

[2] = Octanol/water partition coefficient (logP); assay type: physicochemical; settings: 1-octanol/water, triplicates
Experimental: For the determination of LogP value and the in-vitro serum stability, the same protocol was used as was described earlier by our research group. Briefly, for the determination of the partition coefficient (logP), 10 µL of [^68Ga]Ga-NODAGA-AMBA or [^44Sc]Sc-NODAGA-AMBA solution (approximately 5 MBq) was mixed with 500 µL of 1-octanol and 490 µL of water in a test tube. To reach equilibrium state, the mixture was firmly stirred and then centrifuged (20.000 rpm, 5 min). One-hundred microliters of the samples were pipetted into vials from each layer, and the radioactivity of the fractions was determined with a calibrated gamma counter (Perkin-Elmer Packard Cobra, Waltham, MA, USA). The measurements were performed in triplicates for both labelled compounds.

[3] = Pharmacokinetics (blood clearance) in healthy control mice; assay type: in vivo; settings: healthy control CB17 SCID mice, i.v.
Experimental: as §1

[4] = In-vitro stability in mouse plasma, Na2EDTA and oxalic acid (radio-HPLC); assay type: in vitro ADME; settings: mixed with mouse plasma, oxalic acid
Experimental: For in-vitro stability measurements, the labelled compounds were mixed with mouse plasma, Na2EDTA, and oxalic acid. Samples were injected at different time points to the HPLC with and without a column.
After 15 and 90 min incubation time, a 50 µL sample was taken and 50 µL abs. EtOH was added to the aliquots. Then, the samples were centrifuged (20.000 rpm, 5 min), and the supernatant was removed and diluted with the eluent of HPLC. This was followed by the performance of the analytical measurements.

[5] = Ex-vivo biodistribution in healthy control mice; parameters: species or system CB17 SCID mice; settings: i.v.; for accumulation in the adrenal glands / accumulation in the kidneys / accumulation in the pancreas / accumulation in the urine: 30-180 min, approx.; for radiotracer uptake in blood, liver, spleen, gastrointestinal tract and thoracic organs: each investigated time point
Experimental: (§2) Thirty, 60, 120, and 180 min after the intravenous injection of 11.3 ± 1.4 MBq [^68Ga]Ga-NODAGA-AMBA or [^44Sc]Sc-NODAGA-AMBA healthy control and PC-3 tumor-bearing mice were euthanized with 5% Forane, sacrificed, and tissue samples were taken from the selected organs. The weight and the radioactivities of both the tumors and normal tissues were measured with calibrated gamma counter, and the uptake was expressed as %ID/g tissue.

PC-3 tumors = assay: Ex-vivo biodistribution of PC-3 tumor-bearing mice; assay type: in vivo, CB17 SCID mice; settings: for accumulation in PC3 tumors, blocked: 15 mg/kg BBN blocking, 15 mg/kg
Experimental: For animal experiments, 12-week-old female CB17 SCID (n = 64) were used. For the induction of GRPR-expressing tumor model, mice were anesthetized with a dedicated small animal anesthesia device (Tec3 Isoflurane Vaporizer, Eickemeyer Veterinary Equipment, Sunbury-on-Thames, UK) applying 3% isoflurane (Forane, AbbVie), 0.4 L/min O2, and 1.4 L/min N2O, and 5 × 10^6 PC-3 tumor cells in 0.9% NaCl (100 µL) were injected subcutaneously into the left shoulder area of CB17 SCID mice. In-vivo and ex-vivo experiments were carried out 14 ± 1 days after subcutaneous injection of tumor cells at the tumor volume of approximately 86 mm^3.
as §2
For blocking experiments, PC-3 tumor-bearing mice were injected intravenously with 15 mg/kg of BBN (Sigma-Aldrich) 30 min prior to the injection of 11.3 ± 1.4 MBq [^68Ga]Ga-NODAGA-AMBA or [^44Sc]Sc-NODAGA-AMBA and in-vivo and ex-vivo organ distribution studies were performed as described above.

Row | Compound | in-vivo stability [1] | octanol/water partition coefficient (logP) [2] | half-life in the blood [3] | RCP, in-vitro stability ([4]; 15 min) | RCP, in-vitro stability ([4]; 90 min) | accumulation in the adrenal glands [5] | accumulation in the kidneys [5] | accumulation in the pancreas [5] | accumulation in the urine [5] | radiotracer uptake in blood, liver, spleen, gastrointestinal tract and thoracic organs [5] | accumulation in PC3 tumors, blocked (PC-3 tumors; 60 min) [%ID/g] | accumulation in PC3 tumors (PC-3 tumors; 60 min after i.v. injection) [%ID/g] | accumulation in PC3 tumors, blocked (PC-3 tumors; 120 min) [%ID/g] | accumulation in PC3 tumors (PC-3 tumors; 120 min after i.v. injection) [%ID/g]
1 | CSCC[C@H](NC(=O)[C@H](CC(C)C)NC(=O)[C@H](Cc1c[nH]cn1)NC(=O)CNC(=O)[C@@H](NC(=O)[C@H](C)NC(=O)[C@H](Cc1c[nH]c2ccccc12)NC(=O)[C@H](CCC(N)=O)NC(=O)c1ccc(NC(=O)CNC(=O)CCC(C(=O)O)N2CCN(CC(=O)O)CCN(CC(=O)O)CC2)cc1)C(C)C)C(N)=O (stereo partly shown) [[^68Ga]Ga-NODAGA-AMBA] [metal not drawn] | remained stable | −2.75 ± 0.18 | less than 30 minutes | approximately 92% | approximately 85% | 0.5–3 %ID/g | 2–8 %ID/g | 1–4 %ID/g | 250–450 %ID/g | Low radiotracer uptake | 0.60 ± 0.22 | 3.78 ± 0.93 | 0.48 ± 0.14 | 3.29 ± 1.20
2 | CSCC[C@H](NC(=O)[C@H](CC(C)C)NC(=O)[C@H](Cc1c[nH]cn1)NC(=O)CNC(=O)[C@@H](NC(=O)[C@H](C)NC(=O)[C@H](Cc1c[nH]c2ccccc12)NC(=O)[C@H](CCC(N)=O)NC(=O)c1ccc(NC(=O)CNC(=O)CCC(C(=O)O)N2CCN(CC(=O)O)CCN(CC(=O)O)CC2)cc1)C(C)C)C(N)=O (stereo partly shown) [[^44Sc]Sc-NODAGA-AMBA] [metal not drawn] | remained stable | −2.81 ± 0.14 | less than 30 minutes | over 98% | over 98% | 0.5–3 %ID/g | 2–8 %ID/g | 1–4 %ID/g | 250–450 %ID/g | Low radiotracer uptake | 0.79 ± 0.16 | 4.56 ± 0.45 | 0.69 ± 0.17 | 4.14 ± 0.47

From PMC9456106, “PET Probes for Preclinical Imaging of GRPR-Positive Prostate Cancer: Comparative Preclinical Study of [^68Ga]Ga-NODAGA-AMBA and [^44Sc]Sc-NODAGA-AMBA” (International Journal of Molecular Sciences, 2022)
